Measurements reported in patent US20200331999 (published 2020).

How the values were obtained:
[1] = molecular target: T1, human TIGIT ECD (human); test: SPR, pH 6.0
T1 chain: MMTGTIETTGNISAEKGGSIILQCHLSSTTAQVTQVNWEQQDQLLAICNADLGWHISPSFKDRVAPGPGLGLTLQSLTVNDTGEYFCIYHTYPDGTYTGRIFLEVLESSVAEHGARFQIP

[2] = molecular target: T2, human TIGIT-Fc (human); test: competition, FACS, blocking binding to PVR on HEK293
T2 chain: T1 chain

[3] = molecular target: T1, human TIGIT ECD; test: SPR, pH 7.4
[4] = molecular target: T2, human TIGIT-Fc; test: competition, FACS, blocking binding to PVR-L2 on HEK293

B1: hu1217-2-2/IgG1 (antibody, V domains shown)
VH: EVQLVESGGGLVQPGGSLRLSCAASGFTFSDYYMYWVRQAPGKGLEWVAYITKGGGSTYYPDSVKGRFTISRDNAKNTLYLQMNSLRAEDTAVYYCARQTNYDFTMDYWGQGTLVTVSS
VL: EIVMTQSPATLSVSPGERATLSCKASQDVGTSVAWYQQKPGQAPRLLIYWASARHTGIPARFSGSGSGTEFTLTISSLQSEDFAVYYCQQYSSYPLTFGGGTKVEIK
modifications: wild-type human IgG1 Fc
Kd [1]: 29.9 pM | IC50 [2]: 0.64 µg/mL | Kd [3]: 219 pM | IC50 [4]: 0.25 µg/mL
